B1: 抗CD3单域抗体 C12 (sdAb clone C12) (VHH)
VHH: QVQLQESGGGLVQPGGSLRLSCAASGSMYRPNTMGWHRQAPGEQRKLVARITSDGNTNYADSVKGRFTISRDNAKNTVHLEMNSLQPEDTAVYYCYYSDFVNLRGFWGQGTQVTVSS
notes: Llama sdAb from a phage display library; Tested as unpurified sdAb-SASA protein in E. coli expression medium or culture supernatant; 1 in its text; also called sdAb-SASA; not shown: SASA fusion partner from the pFASEBA vector (sdAb-SASA protein in expression medium)

Legend:
[1] = target: CD3 on Jurkat细胞 (Jurkat靶标细胞) (human) (UniProt P07766); experiment: flow cytometry (FACSCalibur), culture supernatant on Jurkat cells; negative control sdAb
[2] = target: CD3 on Jurkat细胞 (Jurkat靶标细胞) (human) (UniProt P07766); experiment: flow cytometry (FACSCalibur), culture supernatant on Jurkat cells
CD3-His蛋白(MP-5) = target: T1, CD3-His蛋白(MP-5) (human, UniProt P07766 23-126); experiment: BLI (Octet RED96) off-rate screening; sdAb-SASA from expression medium captured on BSA-coated biosensor, CD3 at 100 nM in solution, 30°C, 1:1 Langmuir model
T1 construct: also called CD3蛋白; not shown: His tag
T1 sequence (P07766 23-126): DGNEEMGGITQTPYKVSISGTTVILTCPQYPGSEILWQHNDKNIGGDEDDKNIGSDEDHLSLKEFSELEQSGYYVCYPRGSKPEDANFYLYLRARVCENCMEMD

Molecule | MFI [1] | MFI [2] | koff (CD3-His蛋白(MP-5))
NC-sdAb (相同形式的非相关性sdAb) (VHH) | 115 MFI | – | –
B1 | – | 2330 MFI | 6.61e-05 s⁻¹

Reference: patent CN106117359A (UNIV SUN YAT SEN, dated 2016)
